# According to patent US10280205B2, “Method for treating cancer with an activated T lymphocyte that selectively recognizes a cancer cell consisting of specific peptide” (immatics biotechnologies GmbH, priority 2015, dated 2019):
# Target: HLA-A*02:01 (Homo sapiens, UniProt P04439, D140Y/D185E/D98H/E176V/E277Q/G131W/G231S/I119V/I121R/I166T/I218V/L300P/L318F/N151K/N90K/P208A/P217A/Q86G/Q94H/R138H/R169H/T345S)
# Assay: MHC binding assay: UV-ligand exchange with beta2m ELISA (exchange yield)
# Details: binding to HLA-A*02:01, β2m ELISA
# How it was run: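 Exchange yield reflects how much β2m remains bound, measured by ELISA: streptavidin capture of 100-fold diluted monomers, HRP anti-β2m at 37° C. for 1 h, TMB read at 450 nm. Monomers come from UV cleavage of a conditional HLA-A*02:01 ligand in the presence of the candidate peptide.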
row,"Peptide exchange (MHC class I binding score, peptide exchange yield)",Substance
1,“+++” (≥50 = +++),151 (KILQQLVTL; listed as Homo sapiens) [compound 151]
2,“+++” (≥50 = +++),469 (YLASDEITTV; listed as Homo sapiens) [compound 469]
3,“+++” (≥50 = +++),378 (ALGYFVPYV; listed as Homo sapiens) [compound 378]
4,“+++” (≥50 = +++),223 (ALLENIALYL; listed as Homo sapiens) [compound 223]
5,“++” (≥20% = ++),516 (AVGPASILKEV; listed as Homo sapiens) [compound 516]
6,“+++” (≥50 = +++),582 (TLCDVILMV; listed as Homo sapiens) [compound 582]
7,“+++” (≥50 = +++),448 (NLLETKLQL; listed as Homo sapiens) [compound 448]
8,“++++” (≥75% = ++++),358 (ALDEYTSEL; listed as Homo sapiens) [compound 358]
9,“+++” (≥50 = +++),591 (SMAELDIKL; listed as Homo sapiens) [compound 591]
10,“+++” (≥50 = +++),598 (FLFPHSVLV; listed as Homo sapiens) [compound 598]
11,“++” (≥20% = ++),18 (YLVAKLVEV; listed as Homo sapiens) [compound 18]
12,“++++” (≥75% = ++++),4 (GIMEHITKI; listed as Homo sapiens) [compound 4]
13,“++” (≥20% = ++),538 (LLLAHIIAL; listed as Homo sapiens) [compound 538]
14,“++” (≥20% = ++),491 (GLNDRSDAV; listed as Homo sapiens) [compound 491]
15,“++” (≥20% = ++),429 (GLVNDLARV; listed as Homo sapiens) [compound 429]
16,“+++” (≥50 = +++),139 (SVMEVNSGIYRV; listed as Homo sapiens) [compound 139]
17,“+++” (≥50 = +++),138 (YQYPRAILSV; listed as Homo sapiens) [compound 138]
18,“++” (≥20% = ++),221 (ALYEEGLLL; listed as Homo sapiens) [compound 221]
19,“+++” (≥50 = +++),488 (FLAEDPKVTL; listed as Homo sapiens) [compound 488]
20,“+++” (≥50 = +++),160 (FLFDEEIEQI; listed as Homo sapiens) [compound 160]
21,“+++” (≥50 = +++),454 (KLPPPPPQA; listed as Homo sapiens) [compound 454]
22,“+++” (≥50 = +++),27 (ILADIVISA; listed as Homo sapiens) [compound 27]
23,“+++” (≥50 = +++),465 (QLCDLNAEL; listed as Homo sapiens) [compound 465]

row,"Peptide exchange (MHC class I binding score, peptide exchange yield)",Substance
1,“++” (≥20% = ++),133 (KVLSNIHTV; listed as Homo sapiens) [compound 133]
2,“+++” (≥50 = +++),544 (LLWDVPAPSL; listed as Homo sapiens) [compound 544]
3,“+++” (≥50 = +++),367 (SLQNHNHQL; listed as Homo sapiens) [compound 367]
4,“+++” (≥50 = +++),439 (YLLQEIYGI; listed as Homo sapiens) [compound 439]
5,“+++” (≥50 = +++),593 (GLPRFGIEMV; listed as Homo sapiens) [compound 593]
6,“++” (≥20% = ++),504 (GLSDGNPSL; listed as Homo sapiens) [compound 504]
7,“+++” (≥50 = +++),182 (MLLEAPGIFL; listed as Homo sapiens) [compound 182]
8,“+++” (≥50 = +++),88 (FLLVGDLMAV; listed as Homo sapiens) [compound 88]
9,“+++” (≥50 = +++),586 (KLKPGDLVGV; listed as Homo sapiens) [compound 586]
10,“+++” (≥50 = +++),577 (VMFEDGVLMRL; listed as Homo sapiens) [compound 577]
11,“+++” (≥50 = +++),571 (LLLTTIPQI; listed as Homo sapiens) [compound 571]
12,“+++” (≥50 = +++),497 (GLLEKLTAI; listed as Homo sapiens) [compound 497]
13,“+++” (≥50 = +++),306 (ALVNVQIPL; listed as Homo sapiens) [compound 306]
14,“+++” (≥50 = +++),542 (RVWDISTVSSV; listed as Homo sapiens) [compound 542]
15,“++” (≥20% = ++),353 (YLFEMDSSL; listed as Homo sapiens) [compound 353]
16,“++” (≥20% = ++),180 (FQIDPHSGLVTV; listed as Homo sapiens) [compound 180]
17,“+++” (≥50 = +++),6 (VLVSDGVHSV; listed as Homo sapiens) [compound 6]
18,“+++” (≥50 = +++),449 (KLAEGLDIQL; listed as Homo sapiens) [compound 449]
19,“+++” (≥50 = +++),569 (KLVDRTWTL; listed as Homo sapiens) [compound 569]
20,“++” (≥20% = ++),434 (KVSNSGITRV; listed as Homo sapiens) [compound 434]
21,“+++” (≥50 = +++),174 (ALAQYLITA; listed as Homo sapiens) [compound 174]
22,“+++” (≥50 = +++),271 (LVYPLELYPA; listed as Homo sapiens) [compound 271]
23,“++++” (≥75% = ++++),552 (GLLDLPFRVGV; listed as Homo sapiens) [compound 552]

row,"Peptide exchange (MHC class I binding score, peptide exchange yield)",Substance
1,“++” (≥20% = ++),233 (VLSETLYEL; listed as Homo sapiens) [compound 233]
2,“+++” (≥50 = +++),13 (YLMDESLNL; listed as Homo sapiens) [compound 13]
3,“++” (≥20% = ++),432 (TLIEESAKV; listed as Homo sapiens) [compound 432]
4,“++++” (≥75% = ++++),620 (KLLNKIYEA; listed as Homo sapiens) [compound 620]
5,“+++” (≥50 = +++),472 (KLLEVSDDPQV; listed as Homo sapiens) [compound 472]
6,“+++” (≥50 = +++),613 (RLLPPGAVVAV; listed as Homo sapiens) [compound 613]
7,“+++” (≥50 = +++),163 (ALDEMGDLLQL; listed as Homo sapiens) [compound 163]
8,“+++” (≥50 = +++),317 (SLAALVVHV; listed as Homo sapiens) [compound 317]
9,“+++” (≥50 = +++),86 (NLIGKIENV; listed as Homo sapiens) [compound 86]
10,“+++” (≥50 = +++),481 (GLIEDYEALL; listed as Homo sapiens) [compound 481]
11,“+++” (≥50 = +++),173 (LLDSASAGLYL; listed as Homo sapiens) [compound 173]
12,“+++” (≥50 = +++),508 (ILAQEQLVVGV; listed as Homo sapiens) [compound 508]
13,“+++” (≥50 = +++),267 (ALQDFLLSV; listed as Homo sapiens) [compound 267]
14,“+++” (≥50 = +++),5 (HLTEVYPEL; listed as Homo sapiens) [compound 5]
15,“++” (≥20% = ++),131 (FVPPVTVFPSL; listed as Homo sapiens) [compound 131]
16,“+++” (≥50 = +++),477 (ALLPASGQIAL; listed as Homo sapiens) [compound 477]
17,“++” (≥20% = ++),580 (LLMENAERV; listed as Homo sapiens) [compound 580]
18,“+++” (≥50 = +++),437 (SMAPGLVIQAV; listed as Homo sapiens) [compound 437]
19,“+++” (≥50 = +++),596 (ALLDQTKTLAESAL; listed as Homo sapiens) [compound 596]
20,“+++” (≥50 = +++),194 (ALPLFVITV; listed as Homo sapiens) [compound 194]
21,“+++” (≥50 = +++),468 (YLRSVGDGETV; listed as Homo sapiens) [compound 468]
